In patent publication US20090202520A1 (PROMEDIOR, published 2009):
Blank lines part the entries; values can stand above or below the binder they belong to.

B2: C-reactive protein (CRP) (ligand, human, UniProt P02741 19-224, looked up)
chain: QTDMSRKAFVFPKESDTSYVSLKAPLTKPLKAFTVCLHFYTELSSTRGYSIFSYATKRQDNEILIFWSKDIGYSFTVGGSEILFEVPEVTVAPVHICTSWESASGIVEFWVDGKPRVRKSLKKGYTVGAEASIILGQEQDSFGGNFEGSQSLVGDIGNVNMWDFVLSPDEINTIYLGGPFSPNVLNWRALKYEVQGEVFTKPQLWP
notes: In the SPR assay CRP was captured on PC-KLH immobilised on a CM5 chip; also called hCRP; PTX1

Key:
serum amyloid P (SAP) [1] = molecular target: T1, serum amyloid P (SAP) (human, UniProt P02743 20-223); assay: SPR (Biacore X100), SAP on CM5 chip, soluble receptor flowed, single cycle kinetics, KD = Kd/Ka
T1 construct: Pentamer of five non-covalently associated protomers; also called hSAP; human serum amyloid protein P
T1 sequence (P02743 20-223): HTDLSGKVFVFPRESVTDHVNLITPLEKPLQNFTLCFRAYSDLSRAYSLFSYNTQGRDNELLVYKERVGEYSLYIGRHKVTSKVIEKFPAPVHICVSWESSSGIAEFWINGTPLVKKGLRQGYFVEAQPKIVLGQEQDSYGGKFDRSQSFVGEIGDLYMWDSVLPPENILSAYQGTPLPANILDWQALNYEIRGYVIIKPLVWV
Description: (§1) Surface plasmon resonance technology detects and quantifies binding and dissociation events between two proteins through a change in mass at the surface of a chip that is detected as a change in surface plasmon resonance. For these studies we used a Biacore X100 instrument.
(§2) SAP was bound to the surface of the test flow cell of a chip and a soluble recombinant form of Fcγ receptor (sFcγR) was flowed across the surface of the chip, representing the contact or binding phase. Buffer was then flowed across the chip surface, representing the dissociation phase. Change in mass at the cell surface with respect to time, detected as a change in surface plasmon resonance units (RUs) with time, was represented by a graph called a sensorgram. Binding of SAP to the CM5 dextran surface of a Biacore CM5 chip was performed in the presence of 10 mM Hepes, 150 mM NaCl, 0.5 mM CaCl₂, pH 7.4 as running buffer. Binding of SAP was stabilized by a very short immobilization using amine coupling (Biacore reagents) which covalently linked a limited representation of amine-group-containing amino acids on SAP to groups on the chip surface activated with 1-ethyl-3-(3-dimethylaminopropyl)carbodiimide and N-hydroxysuccinimide. A negative control flow cell was prepared using the same amine coupling procedure to immobilize human serum albumin to the same level as SAP. […]

[2] = molecular target: T2, soluble recombinant FcγRI (sFcγRI) (UniProt P12314 16-292); assay: SPR steady-state plot of Req against FcγRI concentration (early association phase data); CRP captured via PC-KLH on CM5 chip; vertical line marks the KD estimate
T2 construct: extracellular domain; also called FcγR1; not shown: C-terminal poly-histidine tail of 6-10 histidines
T2 sequence (P12314 16-292): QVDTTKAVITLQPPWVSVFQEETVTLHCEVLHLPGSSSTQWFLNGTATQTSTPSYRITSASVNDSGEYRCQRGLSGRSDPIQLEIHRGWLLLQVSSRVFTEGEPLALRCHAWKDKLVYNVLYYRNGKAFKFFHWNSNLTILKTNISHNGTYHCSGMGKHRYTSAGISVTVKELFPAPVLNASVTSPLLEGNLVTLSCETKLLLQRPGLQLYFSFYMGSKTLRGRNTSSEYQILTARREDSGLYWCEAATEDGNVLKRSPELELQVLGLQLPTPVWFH
Experimental: (§3) Similar methods were used to evaluate binding interactions between CRP and sFcγRs, and details were the same except where stated here. Binding of CRP to Biacore CM5 chips was achieved through capture via PC-KLH (phosphocholine-keyhole limpet hemocyanin conjugate). Briefly, PC-KLH was immobilized onto a CM5 chip through amine coupling onto the chip surface activated with 1-ethyl-3-(3-dimethylaminopropyl)carbodiimide and N-hydroxysuccinimide. A negative control flow cell was prepared using the same amine coupling to immobilize human serum albumin to the same level as the PC-KLH. Binding of CRP to the PC moiety of PC-KLH immobilized on the CM5 chip was achieved by contacting the surface of the CM5 chip with the CRP in 10 mM Hepes, 150 mM NaCl, 0.5 mM CaCl₂, pH 7.4, to achieve the desired amount of bound CRP. We established that binding was specific for the PC moiety in PC-KLH, since no binding to KLH immobilized to the same level was evident when this was attempted on a different flow cell using the same conditions and the same 10 mM Hepes, 150 mM NaCl, 0.5 mM CaCl₂, pH 7.4, as running buffer. Binding of CRP to PC-KLH was stabilized by a very short immobilization using amine coupling. […]

C-reactive protein (CRP) = molecular target: B2; assay: SPR steady-state plot of Req against FcγRIIIB concentration (early association phase data); CRP captured via PC-KLH on CM5 chip; dotted vertical line marks the KD estimate, beyond the highest concentration tested (3e-6 M)
Experimental: as §3

serum amyloid P (SAP) [3] = molecular target: T1, serum amyloid P (SAP); assay: SPR (Biacore X100), SAP on CM5 chip, soluble receptor flowed
Description: as §1, §2

Kd (serum amyloid P (SAP) [1]): 0.00017 µM
B1: soluble recombinant FcγRIIA (H131 variant) (receptor)
chain: QAAPPKAVLKLEPPWINVLQEDSVTLTCQGARSPESDSIQWFHNGNLIPTHTQPSYRFKANNNDSGEYTCQTGQTSLSDPVHLTVLSEWLVLQTPHLEFQEGETIMLRCHSWKDKPLVKVTFFQNGKSQKFSHLDPTFSIPQANHSHSGDYHCTGNIGYTLFSSKPVTITVQVPSMGSSSPMG
notes: also called FcγR2A; not shown: C-terminal poly-histidine tail of 6-10 histidines

Binder: B2
Kd [2]: ~1.45 µM

Kd (C-reactive protein (CRP)): ~15.6 µM
B3: soluble recombinant FcγRIIIB (sFcγRIIIB) (receptor, UniProt O75015 17-200, looked up)
chain: GMRTEDLPKAVVFLEPQWYSVLEKDSVTLKCQGAYSPEDNSTQWFHNENLISSQASSYFIDAATVNDSGEYRCQTNLSTLSDPVQLEVHIGWLLLQAPRWVFKEEDPIHLRCHSWKNTALHKVTYLQNGKDRKYFHHNSDFHIPKATLKDSGSYFCRGLVGSKNVSSETVNITITQGLAVSTIS
notes: extracellular domain; not shown: C-terminal poly-histidine tail of 6-10 histidines

binding result (serum amyloid P (SAP) [3]): no binding
B4: soluble recombinant FcγRIIB (receptor, UniProt P31994 43-217, looked up)
chain: TPAAPPKAVLKLEPQWINVLQEDSVTLTCRGTHSPESDSIQWFHNGNLIPTHTQPSYRFKANNNDSGEYTCQTGQTSLSDPVHLTVLSEWLVLQTPHLEFQEGETIVLRCHSWKDKPLVKVTFFQNGKSKKFSRSDPNFSIPQANHSHSGDYHCTGNIGYTLYSSKPVTITVQAP
notes: as for B3
